Data taken from US20120021995A1 (published 2012).
Each block holds one binder with its values, some of them ahead of it.

How the values were obtained:
[1] = biological target: T1, recombinant human TRAIL R2 (DR5)/Fc chimera (human, UniProt O14763 54-182); test: SPR (Biacore), DR5-Fc captured by anti-Fc, ATRIMER analyte; apparent
T1 construct: bought (R&D Systems); not shown: Fc of the bought chimera (R&D Systems)
Method: (§1) Immobilization of an anti-human IgG Fc antibody (Biacore) to the CM5 chip (Biacore) was performed using standard amine coupling chemistry and this surface was used to capture recombinant human DR4 or DR5 receptor Fc fusion protein (R&D Systems). ATRIMER™ dilutions (1-500 nM) were injected over the DR4 and DR5 receptor surface at 30 μl/min and kinetic constants were derived from the sensorgram data using the Biaevaluation software (version 3.1, Biacore). Data collection was 3 minutes for the association and 5 minutes for dissociation. The anti-human IgG surface was regenerated with a 30 s pulse of 3 M magnesium chloride. All sensorgrams were double-referenced against an activated and blocked flow-cell as well as buffer injections.

[2] = biological target: T2, recombinant human TRAIL R1 (DR4)/Fc chimera (human, UniProt O00220 24-239); test: SPR (Biacore), DR4-Fc captured by anti-Fc, ATRIMER analyte; apparent
T2 construct: bought (R&D Systems); not shown: Fc of the bought chimera (R&D Systems)
T2 sequence: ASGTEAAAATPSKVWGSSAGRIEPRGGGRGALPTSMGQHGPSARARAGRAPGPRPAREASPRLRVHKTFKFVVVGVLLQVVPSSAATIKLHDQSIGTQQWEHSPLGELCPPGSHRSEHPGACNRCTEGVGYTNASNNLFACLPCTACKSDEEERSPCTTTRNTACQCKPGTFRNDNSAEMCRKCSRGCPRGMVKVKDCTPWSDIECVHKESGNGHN
Method: as §1

[3] = biological target: T3, DR4 (TRAIL-R1) on cancer cells (human, UniProt O00220 24-468); test: cell-based or functional assay
T3 sequence: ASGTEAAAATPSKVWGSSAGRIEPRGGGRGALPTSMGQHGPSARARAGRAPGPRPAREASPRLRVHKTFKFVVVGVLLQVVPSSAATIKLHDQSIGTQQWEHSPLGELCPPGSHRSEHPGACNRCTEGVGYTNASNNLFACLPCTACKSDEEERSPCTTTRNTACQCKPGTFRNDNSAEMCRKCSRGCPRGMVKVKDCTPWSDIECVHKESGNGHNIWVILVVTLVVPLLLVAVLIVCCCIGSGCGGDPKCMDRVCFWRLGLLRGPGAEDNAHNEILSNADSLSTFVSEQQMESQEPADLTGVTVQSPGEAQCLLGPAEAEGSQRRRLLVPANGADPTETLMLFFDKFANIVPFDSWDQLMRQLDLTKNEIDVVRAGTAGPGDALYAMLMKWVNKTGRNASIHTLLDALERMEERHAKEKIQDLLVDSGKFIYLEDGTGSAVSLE

[4] = biological target: T2, recombinant human TRAIL R1 (DR4)/Fc …; test: SPR (Biacore), ATRIMER
Method: as §1
Clones were then sub-cloned into pANA19 for expression and purification as described above. Cell killing activity was measured as described above, and binding affinity was measured by Biacore.

[5] = biological target: T3, DR4 (TRAIL-R1) on cancer cells; test: cell-based or functional assay; remark: listed apart in the source

B1: 029-15.B3D (designed binder)
chain: EPPTQKPKKIVNAKKDVVNTKMFEELKSRLDTLAQEVALLKEQQALQTVCLKGTKVHMKCFLAFTQTKTFHEASEDCISRGGTLSTPQTGSENDALYEYLRQSVGNEAEIWLGLNELRTDGLWVDMTGARIAYKNWETEITAQPDGGVMRRSENCAVLSGAANGKWFDKRCRDQLPYICQFGIV
notes: ATRIMER; also called 9b3d
- Ka [1]: 1.11e+06 M⁻¹
- Kd [1]: 899 nM
- koff [1]: 0.000104 s⁻¹
- kon [1]: 116 M⁻¹ s⁻¹

B2: 029-15.B9F (designed binder)
chain: EPPTQKPKKIVNAKKDVVNTKMFEELKSRLDTLAQEVALLKEQQALQTVCLKGTKVHMKCFLAFTQTKTFHEASEDCISRGGTLSTPQTGSENDALYEYLRQSVGNEAEIWLGLNKRVWYRGWVDMTGARIAYKNWETEITAQPDGGMRRRRENCAVLSGAANGKWFDKRCRDQLPYICQFGIV
notes: ATRIMER; also called 2a1a
- Ka [1]: 2.38e+07 M⁻¹
- Kd [1]: 42.8 nM
- koff [1]: 0.00184 s⁻¹
- kon [1]: 43800 M⁻¹ s⁻¹

B3: 014-42.3B8 (designed binder)
chain: EPPTQKPKKIVNAKKDVVNTKMFEELKSRLDTLAQEVALLKEQQALQTVCLKGTKVHMKCFLAFTQTKTFHEASEDCISRGGTLSTPQTGSENDALYEYLRQSVGNEAEIWLGLNGWLEGVGWVDMTGARIAYKNWETEITAQPDGGEHWGWENCAVLSGAANGKWFDKRCRDQLPYICQFGIV
notes: ATRIMER; also called 14p42P3B8
- Ka [2]: 1.11e+08 M⁻¹
- Kd [2]: 9.01 nM
- koff [2]: 0.00101 s⁻¹
- kon [2]: 112000 M⁻¹ s⁻¹

B4: 65p114P1B2 (designed binder)
chain: EPPTQKPKKIVNAKKDVVNTKMFEELKSRLDTLAQEVALLKEQQALQTVCLKGTKVHMKCFLAFTQTKTFHEASEDCISRGGTLSTPQTGSENDALYEYLRQSVGNEAEIWLGLNGWLEGSGWVDMTGARIAYKNWFHDRFNQPDGGVQWRWENCAVLSGAANGKWFDKRCRDQLPYICQFGIV
- EC50 Colo205 (cell killing) [3]: 0.18 nM
- EC50 ST486 (cell killing) [3]: 0.09 nM

B5: 142p72P1C9 (designed binder)
chain: EPPTQKPKKIVNAKKDVVNTKMFEELKSRLDTLAQEVALLKEQQALQTVCLKGTKVHMKCFLAFTQTKTFHEASEDCISRGGTLSTPQTGSENDALYEYLRQSVGNEAEIWLGLNGWLEGSGWVDMTGARIAYKNWGDPRWSQPDGGVQWRWENCAVLSGAANGKWFDKRCRDQLPYICQFGIV
- EC50 Colo205 (cell killing) [3]: 0.18 nM
- EC50 ST486 (cell killing) [3]: 0.03 nM

B6: 142p62P1G2 (designed binder)
chain: EPPTQKPKKIVNAKKDVVNTKMFEELKSRLDTLAQEVALLKEQQALQTVCLKGTKVHMKCFLAFTQTKTFHEASEDCISRGGTLSTPQTGSENDALYEYLRQSVGNEAEIWLGLNGWLEGSGWVDMTGARIAYKNWADERFLQPDGGVQWRWENCAVLSGAANGKWFDKRCRDQLPYICQFGIV
- EC50 Colo205 (cell killing) [3]: 0.32 nM
- EC50 ST486 (cell killing) [3]: 0.2 nM

B7: 142p62P1A2 (designed binder)
chain: EPPTQKPKKIVNAKKDVVNTKMFEELKSRLDTLAQEVALLKEQQALQTVCLKGTKVHMKCFLAFTQTKTFHEASEDCISRGGTLSTPQTGSENDALYEYLRQSVGNEAEIWLGLNGWLEGSGWVDMTGARIAYKNWGDQRLAQPDGGVQWRWENCAVLSGAANGKWFDKRCRDQLPYICQFGIV
- EC50 Colo205 (cell killing) [3]: 0.39 nM
- EC50 ST486 (cell killing) [3]: 0.3 nM

B8: 65p114P1A3 (designed binder)
chain: EPPTQKPKKIVNAKKDVVNTKMFEELKSRLDTLAQEVALLKEQQALQTVCLKGTKVHMKCFLAFTQTKTFHEASEDCISRGGTLSTPQTGSENDALYEYLRQSVGNEAEIWLGLNGWLEGSGWVDMTGARIAYKNWADPKWSQPDGGVQWRWENCAVLSGAANGKWFDKRCRDQLPYICQFGIV
- EC50 Colo205 (cell killing) [3]: 0.11 nM
- EC50 ST486 (cell killing) [3]: 0.05 nM

B9: 119p83P1H4 (designed binder)
chain: EPPTQKPKKIVNAKKDVVNTKMFEELKSRLDTLAQEVALLKEQQALQTVCLKGTKVHMKCFLAFTQTKTFHEASEDCISRGGTLSTPQTGSENDALYEYLRQSVGNEAEIWLGLNGWLEGVGWVDMTGARIAYKNWSKVRLEQPDGGWPFSNENCAVLSGAANGKWFDKRCRDQLPYICQFGIV
notes: ATRIMER from pANA19
- Kd [4]: 0.16 nM
- koff [4]: 2.21e-05 s⁻¹
- kon [4]: 138000 M⁻¹ s⁻¹
- ED50 (nM) ST486 (cell killing) [5]: 0.13 nM

B13: 014-42.3D11 (designed binder)
chain: EPPTQKPKKIVNAKKDVVNTKMFEELKSRLDTLAQEVALLKEQQALQTVCLKGTKVHMKCFLAFTQTKTFHEASEDCISRGGTLSTPQTGSENDALYEYLRQSVGNEAEIWLGLNGWLEGAGWVDMTGARIAYKNWETEITAQPDGGWHWRWENCAVLSGAANGKWFDKRCRDQLPYICQFGIV
notes: ATRIMER
- Ka [2]: 2.53e+07 M⁻¹
- Kd [2]: 39.5 nM
- koff [2]: 0.000526 s⁻¹
- kon [2]: 13300 M⁻¹ s⁻¹

B15: 014-42.3D10 (designed binder)
chain: EPPTQKPKKIVNAKKDVVNTKMFEELKSRLDTLAQEVALLKEQQALQTVCLKGTKVHMKCFLAFTQTKTFHEASEDCISRGGTLSTPQTGSENDALYEYLRQSVGNEAEIWLGLNGYLEGYGWVDMTGARIAYKNWETEITAQPDGGATIAWENCAVLSGAANGKWFDKRCRDQLPYICQFGIV
notes: ATRIMER
- Ka [2]: 6.58e+06 M⁻¹
- Kd [2]: 152 nM
- koff [2]: 0.00185 s⁻¹
- kon [2]: 12200 M⁻¹ s⁻¹

B16: 119p83P1H1 (designed binder)
chain: EPPTQKPKKIVNAKKDVVNTKMFEELKSRLDTLAQEVALLKEQQALQTVCLKGTKVHMKCFLAFTQTKTFHEASEDCISRGGTLSTPQTGSENDALYEYLRQSVGNEAEIWLGLNGWLEGVGWVDMTGARIAYKNWTQRHSGQPDGGWPFSNENCAVLSGAANGKWFDKRCRDQLPYICQFGIV
notes: ATRIMER from pANA19
- Kd [4]: 1.42 nM
- koff [4]: 0.000329 s⁻¹
- kon [4]: 221000 M⁻¹ s⁻¹
- ED50 (nM) ST486 (cell killing) [5]: 13 nM

The next lines start with results.

- Kd [4]: 1.31 nM
- koff [4]: 0.000542 s⁻¹
- kon [4]: 400000 M⁻¹ s⁻¹
B10: 119p94P1D8 (designed binder)
chain: EPPTQKPKKIVNAKKDVVNTKMFEELKSRLDTLAQEVALLKEQQALQTVCLKGTKVHMKCFLAFTQTKTFHEASEDCISRGGTLSTPQTGSENDALYEYLRQSVGNEAEIWLGLNGWLEGVGWVDMTGARIAYKNWGWMDSKQPDGGWPFSNENCAVLSGAANGKWFDKRCRDQLPYICQFGIV
notes: ATRIMER from pANA19
- ED50 (nM) ST486 (cell killing) [5]: 30.5 nM

- Kd [4]: 2.82 nM
- koff [4]: 0.00052 s⁻¹
- kon [4]: 185000 M⁻¹ s⁻¹
B11: 119p94P1B4 (designed binder)
chain: EPPTQKPKKIVNAKKDVVNTKMFEELKSRLDTLAQEVALLKEQQALQTVCLKGTKVHMKCFLAFTQTKTFHEASEDCISRGGTLSTPQTGSENDALYEYLRQSVGNEAEIWLGLNGWLEGVGWVDMTGARIAYKNWAEVPFFQPDGGWPFSNENCAVLSGAANGKWFDKRCRDQLPYICQFGIV
notes: ATRIMER from pANA19
- ED50 (nM) ST486 (cell killing) [5]: 127 nM

- Kd [4]: 2.96 nM
- koff [4]: 0.000892 s⁻¹
- kon [4]: 125000 M⁻¹ s⁻¹
B12: 119p94P1F4 (designed binder)
chain: EPPTQKPKKIVNAKKDVVNTKMFEELKSRLDTLAQEVALLKEQQALQTVCLKGTKVHMKCFLAFTQTKTFHEASEDCISRGGTLSTPQTGSENDALYEYLRQSVGNEAEIWLGLNGWLEGVGWVDMTGARIAYKNWAAVTMEQPDGGWPFSNENCAVLSGAANGKWFDKRCRDQLPYICQFGIV
notes: ATRIMER from pANA19
- ED50 (nM) ST486 (cell killing) [5]: 308 nM

- Kd [4]: 1.85 nM
- koff [4]: 0.000571 s⁻¹
- kon [4]: 141000 M⁻¹ s⁻¹
B14: 119p94P1C1 (designed binder)
chain: EPPTQKPKKIVNAKKDVVNTKMFEELKSRLDTLAQEVALLKEQQALQTVCLKGTKVHMKCFLAFTQTKTFHEASEDCISRGGTLSTPQTGSENDALYEYLRQSVGNEAEIWLGLNGWLEGVGWVDMTGARIAYKNWAISDERQPDGGWPFSNENCAVLSGAANGKWFDKRCRDQLPYICQFGIV
notes: ATRIMER from pANA19
- ED50 (nM) ST486 (cell killing) [5]: 251 nM

- Kd [4]: 1.11 nM
- koff [4]: 0.000406 s⁻¹
- kon [4]: 360000 M⁻¹ s⁻¹
B17: 119p94P1B5 (designed binder)
chain: EPPTQKPKKIVNAKKDVVNTKMFEELKSRLDTLAQEVALLKEQQALQTVCLKGTKVHMKCFLAFTQTKTFHEASEDCISRGGTLSTPQTGSENDALYEYLRQSVGNEAEIWLGLNGWLEGVGWVDMTGARIAYKNWARHINEQPDGGWPFSNENCAVLSGAANGKWFDKRCRDQLPYICQFGIV
notes: ATRIMER from pANA19
- ED50 (nM) ST486 (cell killing) [5]: 6.6 nM
